Experimental data reported in US20260049138A1 (Chugai, published 2026).
Residue numbers refer to the chain shown, from its start. Numbers in names are those of the source. Each block holds one binder with its values, some of them ahead of it.

Tests used:
CD3ε homodimer protein [1] = target: T1, CD3ε homodimer protein (human, UniProt P07766 23-126, limits assumed); experiment: SPR Biacore T200, CD3ε homodimer on chip;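 further: Light-chain single-residue variant antibodies injected over amine-coupled CD3ε homodimer on a CM4 chip at 25 °C, bound amount divided by that of the GLS3000-containing antibody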
T1 construct: also called CD3 (CD3ε)

CD3ε homodimer protein [2] = target: T2, CD3ε homodimer protein (human, UniProt P07766 23-126, limits assumed, sulfo-tag or biotin label in the ECL assays; amine-coupled to the chip in SPR); experiment: SPR Biacore T200; CD3ε homodimer on CM4 chip;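 further: Single-residue variant antibodies injected as analyte over CD3ε homodimer immobilized by amine coupling, run at 25 °C in HBS-EP+ buffer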
T2 construct: also called human CD3ε homodimer protein; CD3 (CD3ε)
T2 sequence (P07766 23-126 limits assumed): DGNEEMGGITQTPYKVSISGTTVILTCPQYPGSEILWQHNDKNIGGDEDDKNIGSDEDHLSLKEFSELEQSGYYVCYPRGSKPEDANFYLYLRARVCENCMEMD

T1 sequence (P07766 23-126 limits assumed): as above

ratio of amount bound vs unaltered GLS3000 (CD3ε homodimer protein [1]): 1.26
B1: GLS3000 V94P one-arm antibody (antibody, human IgG1, kappa, L234A L235A, N297A, name in Kabat numbering)
heavy: QVQLVESGGGVVQPGRSLRLSCAASGFTFSNAWMHWVRQAPGKGLEWVAQIKAKSNNYATYYAESVKGRFTISRDDSKNSLYLQMNSLKTEDTAVYYCRYVHYGAYYGVDAWGQGTTVTVSSASTKGPSVFPLAPSSKSTSGGTAALGCLVKDYFPEPVTVSWNSGALTSGVHTFPAVLQSSGLYSLSSVVTVPSSSLGTQTYICNVNHKPSNTKVDKKVEPKSCDKTHTCPPCPAPEAAGGPSVFLFPPKPKDTLMISRTPEVTCVVVDVSHEDPEVKFNWYVDGVEVHNAKTKPREEQYASTYRVVSVLTVLHQDWLNGKEYKCKVSNKALPAPIEKTISKAKGQPREPQVYTLPPSRCELTKNQVSLSCAVKGFYPSDIAVEWESNGQPENNYKTTPPVLDSDGSFFLVSKLTVDKSRWQQGNVFSCSVMHEALHNHYTQKSLSLSPDYKDDDDK
chain: EPKSSDKTHTCPPCPAPELLGGPSVFLFPPKPKDTLMISRTPEVTCVVVDVSHEDPEVKFNWYVDGVEVHNAKTKPREEQYNSTYRVVSVLTVLHQDWLNGKEYKCKVSNKALPAPIEKTISKAKGQPREPQVCTLPPSRDELTKNQVSLWCLVKGFYPSDIAVEWESNGQPENNYKTTPPVLDSDGSFFLYSKLTVDKSRWQQGNVFSCSVMHEALHNRYTQKSLSLSP
light: DIVMTQSPLSLPVTPGEPASISCRSSQSLVHSNRNTYLHWYQQKPGQAPRLLIYKVSNRFSGVPDRFSGSGSGTDFTLKISRVEAEDVGVYYCGQGTQPPYTFGQGTKLEIKRTVAAPSVFIFPPSDEQLKSGTASVVCLLNNFYPREAKVQWKVDNALQSGNSQESVTEQDSKDSTYSLSSTLTLSKADYEKHKVYACEVTHQGLSSPVTKSFNRGEC

ratio of amounts bound Z=Y/X (altered form / CE115HA000) (CD3ε homodimer protein [2]): 0.17
B2: CE115HA000 H35A one-arm antibody (antibody, human IgG1, kappa, L234A L235A, N297A, name in Kabat numbering)
heavy: B1 heavy with H35A
chain: B1 chain
light: B1 light with P99V

ratio of amount bound vs unaltered GLS3000 (CD3ε homodimer protein [1]): 0.75
B3: GLS3000 Q45E one-arm antibody (antibody)
chain 1: B1 light with R50E, P99V
chain 2: B1 heavy
chain 3: B1 chain

ratio of amounts bound Z=Y/X (altered form / CE115HA000) (CD3ε homodimer protein [2]): 0.15
B4: CE115HA000 A52aP one-arm antibody (antibody, human IgG1, kappa, L234A L235A, N297A, name in Kabat numbering)
heavy: B1 heavy with A53P
chain: B1 chain
light: B1 light with P99V

ratio of amounts bound Z=Y/X (altered form / CE115HA000) (CD3ε homodimer protein [2]): 0.67
B5: CE115HA000 A56N one-arm antibody (antibody, human IgG1, kappa, L234A L235A, N297A, name in Kabat numbering)
heavy: B1 heavy with A59N
chain: B1 chain
light: B1 light with P99V

ratio of amounts bound Z=Y/X (altered form / CE115HA000) (CD3ε homodimer protein [2]): 1.34
B6: CE115HA000 A52aD one-arm antibody (antibody, human IgG1, kappa, L234A L235A, N297A, name in Kabat numbering)
heavy: B1 heavy with A53D
chain: B1 chain
light: B1 light with P99V

ratio of amounts bound Z=Y/X (altered form / CE115HA000) (CD3ε homodimer protein [2]): 0.81
B7: CE115HA000 A52aG one-arm antibody (antibody, human IgG1, kappa, L234A L235A, N297A, name in Kabat numbering)
heavy: B1 heavy with A53G
chain: B1 chain
light: B1 light with P99V

ratio of amounts bound Z=Y/X (altered form / CE115HA000) (CD3ε homodimer protein [2]): 1.35
B8: CE115HA000 A56K one-arm antibody (antibody, human IgG1, kappa, L234A L235A, N297A, name in Kabat numbering)
heavy: B1 heavy with A59K
chain: B1 chain
light: B1 light with P99V

ratio of amount bound vs unaltered GLS3000 (CD3ε homodimer protein [1]): 0.32
B9: GLS3000 Y96L one-arm antibody (antibody, human IgG1, kappa, L234A L235A, N297A, name in Kabat numbering)
heavy: B1 heavy
chain: B1 chain
light: B1 light with P99V, Y101L

ratio of amounts bound Z=Y/X (altered form / CE115HA000) (CD3ε homodimer protein [2]): 0.8
B10: CE115HA000 A56L one-arm antibody (antibody, human IgG1, kappa, L234A L235A, N297A, name in Kabat numbering)
heavy: B1 heavy with A59L
chain: B1 chain
light: B1 light with P99V

ratio of amount bound vs unaltered GLS3000 (CD3ε homodimer protein [1]): 0.76
B11: GLS3000 V94Q one-arm antibody (antibody, human IgG1, kappa, L234A L235A, N297A, name in Kabat numbering)
heavy: B1 heavy
chain: B1 chain
light: B1 light with P99Q

ratio of amounts bound Z=Y/X (altered form / CE115HA000) (CD3ε homodimer protein [2]): 0.61
B12: CE115HA000 A56G one-arm antibody (antibody, human IgG1, kappa, L234A L235A, N297A, name in Kabat numbering)
heavy: B1 heavy with A59G
chain: B1 chain
light: B1 light with P99V

ratio of amount bound vs unaltered GLS3000 (CD3ε homodimer protein [1]): 0.23
B13: GLS3000 Y96H one-arm antibody (antibody, human IgG1, kappa, L234A L235A, N297A, name in Kabat numbering)
heavy: B1 heavy
chain: B1 chain
light: B1 light with P99V, Y101H

ratio of amount bound vs unaltered GLS3000 (CD3ε homodimer protein [1]): 0.17
B14: GLS3000 Y96E one-arm antibody (antibody, human IgG1, kappa, L234A L235A, N297A, name in Kabat numbering)
heavy: B1 heavy
chain: B1 chain
light: B1 light with P99V, Y101E

ratio of amount bound vs unaltered GLS3000 (CD3ε homodimer protein [1]): 0.24
B15: GLS3000 Y32P one-arm antibody (antibody, human IgG1, kappa, L234A L235A, N297A, name in Kabat numbering)
heavy: B1 heavy
chain: B1 chain
light: B1 light with Y37P, P99V

ratio of amounts bound Z=Y/X (altered form / CE115HA000) (CD3ε homodimer protein [2]): 0.52
B16: CE115HA000 A52aV one-arm antibody (antibody, human IgG1, kappa, L234A L235A, N297A, name in Kabat numbering)
heavy: B1 heavy with A53V
chain: B1 chain
light: B1 light with P99V

ratio of amount bound vs unaltered GLS3000 (CD3ε homodimer protein [1]): 0.24
B17: GLS3000 Y32A one-arm antibody (antibody, human IgG1, kappa, L234A L235A, N297A, name in Kabat numbering)
heavy: B1 heavy
chain: B1 chain
light: B1 light with Y37A, P99V

ratio of amount bound vs unaltered GLS3000 (CD3ε homodimer protein [1]): 1.17
B18: GLS3000 Y96F one-arm antibody (antibody, human IgG1, kappa, L234A L235A, N297A, name in Kabat numbering)
heavy: B1 heavy
chain: B1 chain
light: B1 light with P99V, Y101F

ratio of amount bound vs unaltered GLS3000 (CD3ε homodimer protein [1]): 0.93
B19: GLS3000 V94T one-arm antibody (antibody, human IgG1, kappa, L234A L235A, N297A, name in Kabat numbering)
heavy: B1 heavy
chain: B1 chain
light: B1 light with P99T

ratio of amounts bound Z=Y/X (altered form / CE115HA000) (CD3ε homodimer protein [2]): 0.31
B20: CE115HA000 A52aY one-arm antibody (antibody, human IgG1, kappa, L234A L235A, N297A, name in Kabat numbering)
heavy: B1 heavy with A53Y
chain: B1 chain
light: B1 light with P99V

ratio of amounts bound Z=Y/X (altered form / CE115HA000) (CD3ε homodimer protein [2]): 0.57
B21: CE115HA000 A52aE one-arm antibody (antibody, human IgG1, kappa, L234A L235A, N297A, name in Kabat numbering)
heavy: B1 heavy with A53E
chain: B1 chain
light: B1 light with P99V

ratio of amounts bound Z=Y/X (altered form / CE115HA000) (CD3ε homodimer protein [2]): 0.76
B22: CE115HA000 A56Q one-arm antibody (antibody, human IgG1, kappa, L234A L235A, N297A, name in Kabat numbering)
heavy: B1 heavy with A59Q
chain: B1 chain
light: B1 light with P99V

ratio of amount bound vs unaltered GLS3000 (CD3ε homodimer protein [1]): 0.23
B23: GLS3000 Y32D one-arm antibody (antibody, human IgG1, kappa, L234A L235A, N297A, name in Kabat numbering)
heavy: B1 heavy
chain: B1 chain
light: B1 light with Y37D, P99V

ratio of amounts bound Z=Y/X (altered form / CE115HA000) (CD3ε homodimer protein [2]): 0.33
B24: CE115HA000 A32Y one-arm antibody (antibody, human IgG1, kappa, L234A L235A, N297A, name in Kabat numbering)
heavy: B1 heavy with A32Y
chain: B1 chain
light: B1 light with P99V

ratio of amounts bound Z=Y/X (altered form / CE115HA000) (CD3ε homodimer protein [2]): 0.51
B25: CE115HA000 A56D one-arm antibody (antibody, human IgG1, kappa, L234A L235A, N297A, name in Kabat numbering)
heavy: B1 heavy with A59D
chain: B1 chain
light: B1 light with P99V

ratio of amount bound vs unaltered GLS3000 (CD3ε homodimer protein [1]): 0.58
B26: GLS3000 V94W one-arm antibody (antibody, human IgG1, kappa, L234A L235A, N297A, name in Kabat numbering)
heavy: B1 heavy
chain: B1 chain
light: B1 light with P99W

ratio of amount bound vs unaltered GLS3000 (CD3ε homodimer protein [1]): 0.66
B27: GLS3000 V94R one-arm antibody (antibody, human IgG1, kappa, L234A L235A, N297A, name in Kabat numbering)
heavy: B1 heavy
chain: B1 chain
light: B1 light with P99R

ratio of amounts bound Z=Y/X (altered form / CE115HA000) (CD3ε homodimer protein [2]): 1.05
B28: CE115HA000 A52aS one-arm antibody (antibody, human IgG1, kappa, L234A L235A, N297A, name in Kabat numbering)
heavy: B1 heavy with A53S
chain: B1 chain
light: B1 light with P99V

ratio of amount bound vs unaltered GLS3000 (CD3ε homodimer protein [1]): 0.93
B29: GLS3000 V94S one-arm antibody (antibody, human IgG1, kappa, L234A L235A, N297A, name in Kabat numbering)
heavy: B1 heavy
chain: B1 chain
light: B1 light with P99S

ratio of amount bound vs unaltered GLS3000 (CD3ε homodimer protein [1]): 0.63
B30: GLS3000 V94Y one-arm antibody (antibody, human IgG1, kappa, L234A L235A, N297A, name in Kabat numbering)
heavy: B1 heavy
chain: B1 chain
light: B1 light with P99Y

ratio of amount bound vs unaltered GLS3000 (CD3ε homodimer protein [1]): 0.29
B31: GLS3000 Y32F one-arm antibody (antibody, human IgG1, kappa, L234A L235A, N297A, name in Kabat numbering)
heavy: B1 heavy
chain: B1 chain
light: B1 light with Y37F, P99V

ratio of amount bound vs unaltered GLS3000 (CD3ε homodimer protein [1]): 0.17
B32: GLS3000 Y96D one-arm antibody (antibody, human IgG1, kappa, L234A L235A, N297A, name in Kabat numbering)
heavy: B1 heavy
chain: B1 chain
light: B1 light with P99V, Y101D
